Experimental data from publication PMC8274395 (Biochemistry, 2021).

Molecular target: the molecule itself
Experiment: crystal structure

B1: Cj1441, UDP-glucose 6-dehydrogenase from Campylobacter jejuni NCTC 11168 (enzyme)
chain: MKIVIVGIGYVGLANAILFSKNNENEVVLLDIDENKIQSINNHKSPIKDKLIEKFFVQNISKLHATSNIKEAYFNADFAVIATPTDYDEQLNFFDTRSIENVLKDIKNINSKINVIIKSTVPIGYTKTIKQKFNMSNIVFSPEFLREGSALYDSLYPSRIIIGDKSVLGKTIGDLFLKNIEKKNVDIFYMDSDEAESVKLFSNTYLAMRVGFFNEVDSYARKHNLNSADIIKGISADDRIGKYYNNPSFGYGGYCLPKDTKQLLANFYNIPNSLIKAIVETNEIRKKFITQLILEKKPNILGIYRLIMKQNSDNFRNSVIIDIIKYLQEYNSNIELIIYEPLVKEKKFLNIKVENDFNVFGAKVDLIIANRFDDKLKEIKDKVFSADVFYTDI
- binding result: binds
